Patent US20200165328A1 (Janssen / Centocor, published 2020)

Assays:
[1] = biological target: T1, rodent Aβ3pE-40 (rodent, UniProt P12023 674-711, pyroglutamate at the third residue of Aβ (N-terminal residue of this peptide)); test: sandwich ELISA, Aβ/pE3/1 coated, detection with JRF/cAβ40/28-HRPO
T1 construct: domain: Aβ3pE-40; Synthetic peptide
T1 peptide (looked up): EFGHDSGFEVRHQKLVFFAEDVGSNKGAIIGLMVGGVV
Description: (§1) Concentrations up to 10,000 […] were tested.
(§2) Standards were dissolved in dimethylsulphoxide (DMSO) (Sigma) at 0.1 mg/mL and stored at −80° C. For use in ELISA, peptides were further diluted in 0.1% casein in PBS down to 1 μg/mL. […] Standards were incubated overnight at 4° C. together with HRPO-labeled secondary antibody (JRF/cAβ40/28-HRPO or JRF/cAβ42/26-HRPO). After overnight incubation, plates were washed and the assay was developed with TMB peroxide EIA substrate kit (Biorad) according to the manufacturer's recommendations.

[2] = biological target: T2, human Aβ3-42 peptide (human); test: sandwich ELISA, Aβ/pE3/1 coated, detection with JRF/cAβ42/26-HRPO
T2 construct: Synthetic peptide; also called N-truncated (Aβ3-42)
T2 sequence (peptide, as listed by the source): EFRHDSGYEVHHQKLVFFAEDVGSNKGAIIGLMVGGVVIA
Description: as §1, §2

[3] = biological target: T3, human Aβ1-42 peptide (human); test: as above
T3 construct: Synthetic peptide; also called full-length human (Aβ1-42)
T3 sequence (peptide, as listed by the source): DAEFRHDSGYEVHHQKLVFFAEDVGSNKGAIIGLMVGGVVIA
Description: as §1, §2

[4] = biological target: T4, human Aβ3pE-40 peptide (human, pyroglutamate at the third residue of Aβ (N-terminal residue of this peptide)); test: sandwich ELISA, antibody coated, peptide standard, detection with JRF/cAβ40/28-HRPO
T4 construct: Synthetic peptide (AnaSpec)
Description: (§3) For the selected Aβ3pE monoclonal antibodies, the sensitivity for detection of Aβ3-40 (SEQ ID NO:24) (AnaSpec, Fremont, USA) and Aβ3pE-40 (SEQ ID NO:22) (AnaSpec, Fremont, USA) was evaluated in a sandwich assay using synthetic peptides as standards.
(§4) Standards of Aβ3-40 (SEQ ID NO:24) and Aβ3pE-40 (SEQ ID NO:22) peptides were dissolved in dimethylsulphoxide (DMSO) (Sigma) at 0.1 mg/mL and stored at −80° C. For use in ELISA, peptides were further diluted in 0.1% casein in PBS down to 1 μg/mL. […] Standards were incubated overnight at 4° C. together with HRPO-labeled secondary antibody. After overnight incubation, the plates were washed and the assay was developed with Quantablu substrate (Pierce, Rockford, Ill.) according to the manufacturer's recommendations.

[5] = biological target: T5, human Aβ3-40 peptide (human); test: as above
T5 construct: Synthetic peptide (AnaSpec), N-truncated, no pyroglutamate
Description: as §3, §4

[6] = biological target: T4, human Aβ3pE-40 peptide; test: sandwich ELISA: Aβ/pE3/1 coated as capture, peptide titrated, detection with JRF/cAβ40/28-HRPO, net OD 450 nm
Description: as §1, §2

[7] = biological target: T5, human Aβ3-40 peptide; test: as above
Description: as §1, §2

[8] = biological target: T6, human Aβ1-40 peptide (human); test: as above
T6 construct: Synthetic peptide
Description: as §1, §2

[9] = biological target: T4, human Aβ3pE-40 peptide; test: SPR (Biacore T200), single cycle kinetics, antibody captured by anti-mouse antibody, peptide 3.125-50 nM, 1:1 fit, mean of n = 6
Description: Immobilization of the anti-mouse antibody was performed via amine coupling on a CM5 sensor chip following the manufacturer's protocol. […] The surface was regenerated with 10 mM glycine HCl at pH 1.7 for at least 180 sec and additional 60 sec. Human Aβ (1-40) peptide was used as a negative control.
Affinity measurements were performed using an optical biosensor T200 (Biacore®). Kinetic analysis was performed according to 1:1 binding fitting model with Biacore T200 Evaluation Software (version 2.0).

B1: Aβ/pE3/1 (antibody, mouse IgG2a, kappa, V domains shown)
VH: QVQLQQPGAELVRPGASVKLSCKTSGYTFTRYWINWVKQRPGQGLEWIGNIRPSDSYTNYNQKFKDKATLTVDKSSSTAYMQLNRPTSEDSAVYYCTREGAYSDYETYWGQGTLVTVSA
VL: not shown
notes: Murine monoclonal; also called Clone 1; antibody from clone 1
binding result [1]: no binding (tested: up to 10 ng/mL)
binding result [2]: binds
binding result [3]: no binding (tested: up to 10 ng/mL)
EC50 [4]: 0.026 nM
EC50 [5]: 0.355 nM
EC50 (read off the curve) [6]: ~0.1 ng/mL
EC50 (read off the curve) [7]: ~1 ng/mL
binding result [8]: no binding (tested: 10000 pg/ml (LOG 4))
Kd [9]: 0.853 nM
